Experimental data reported in patent publication US20060198851A1 (Janssen / Centocor, published 2006).
No end group written: not given here.

What was measured:
[1] = target: T1, synthetic Aβ1-42 (aggregated in the ELISAs) (human, UniProt P05067 672-713); experiment: Aβ 1-42 binding ELISA
T1 construct: range 672-713; also called aggregated Aβ1-42; aggregated synthetic Aβ1-42

[2] = target: T1, synthetic Aβ1-42 (aggregated in the …); experiment: competitive Aβ1-42 ELISA, competitor biotin conjugated m12A11Cγ2a (FIG. 12)
[3] = target: T2, biotinylated DAE peptide (immobilized Aβ peptide) (human, UniProt P05067 672-681, limits assumed, also: biotinylated, site not given here); experiment: BIAcore (SPR), biotinylated DAE peptide on streptavidin chip, antibody in solution; bivalent model, global analysis
T2 construct: domain: Aβ peptide (bio-DAE peptide; bio-DAE10); Immobilized on streptavidin biosensor chips for BIAcore; also called bio-DAE peptide; bio-DAE10
T2 peptide (looked up): DAEFRHDSGY

[4] = target: T1, synthetic Aβ1-42 (aggregated in the …); experiment: competitive Aβ1-42 ELISA; competitor: biotin conjugated m12A11Cγ2a at a fixed concentration

B1: humanized 3D6 (antibody, V domains shown)
VH: EVQLVESGGGLVQPGGSLRLSCAGSGFTFSNYGMSWVRQAPGKGLEWVASIRSGGGRTYYSDNVKGRFTISRENAKNSLYLQMNSLRAEDTAVYYCVRYDHYSGSSDYWGQGTLVTVSS
VL: DVVMTQSPLSLPVTLGQPASISCKSSQSLLDSDGKTYLNWLQQRPGQSPRRLIYLVSKLDSGVPDRFSGSGSGTDFTLKISRVEAEDVGVYYCWQGTHFPRTFGGGTKVEIKR
For B1, the “EC50 (read off the curve)” value [1] was ~0.04 µg/mL.

B2: humanized 12A11 version 1 (antibody, V domains shown)
VH: QVQLVESGGGVVQPGRSLRLSCAFSGFSLSTSGMSVGWIRQAPGKGLEWLAHIWWDDDKYYNPSLKSRLTISKDTSKNTVYLQMNSLRAEDTAVYYCARRTTTADYFAYWGQGTTVTVSS
VL: DVVMTQSPLSLPVTPGEPASISCRSSQSIVHSNGNTYLEWYLQKPGQSPQLLIYKVSNRFSGVPDRFSGSGSGTDFTLKISRVEAEDVGVYYCFQSSHVPLTFGQGTKLEIK
notes: Variable domains only; also called h12A11v1; 12A11v1
With B2 the “IC50 fold against murine and chimeric 12A11” value [2] was ≤ 2 fold, the Ka [3] was 4.29e+07 M⁻¹ and the Kd [3] was 23.3 nM. For the same binder, the koff [3] was 0.00343 s⁻¹, the kon [3] was 147000 M⁻¹ s⁻¹ and the “IC50 (read off the curve)” value [4] was ~1 µg/mL.
